B1: LOXL2 (parent)
chain: RLLRFSSQIHNNGQSDFRPKNGRH

Variants of: B1
Test: protein stability index of a GFP-peptide fusion (GPS, HEK-293T) (PSI 1-6); higher = more stable
Settings: c terminus: a fixed tail appended
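Note: lentivirally expressed fusions sorted by FACS into six bins by GFP to DsRed ratio, PSI derived from sequencing read proportions per bin multiplied by bin number.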

Variant	protein stability index
RLWRFSSQIHNNGQSDFRPKNGRH [L3W]	2.64
RLYRFSSQIHNNGQSDFRPKNGRH [L3Y]	3.44
RLLAFSSQIHNNGQSDFRPKNGRH [R4A]	2.87
RLLCFSSQIHNNGQSDFRPKNGRH [R4C]	2.87
RLLDFSSQIHNNGQSDFRPKNGRH [R4D]	3.16
RLLEFSSQIHNNGQSDFRPKNGRH [R4E]	2.87
RLLFFSSQIHNNGQSDFRPKNGRH [R4F]	2.32
RLLGFSSQIHNNGQSDFRPKNGRH [R4G]	3.51
RLLHFSSQIHNNGQSDFRPKNGRH [R4H]	2.74
RLLIFSSQIHNNGQSDFRPKNGRH [R4I]	2.48
RLLKFSSQIHNNGQSDFRPKNGRH [R4K]	2.27
RLLLFSSQIHNNGQSDFRPKNGRH [R4L]	2.36
RLLMFSSQIHNNGQSDFRPKNGRH [R4M]	2.81
RLLNFSSQIHNNGQSDFRPKNGRH [R4N]	3.35
RLLPFSSQIHNNGQSDFRPKNGRH [R4P]	3.86
RLLQFSSQIHNNGQSDFRPKNGRH [R4Q]	2.57
RLLSFSSQIHNNGQSDFRPKNGRH [R4S]	2.79
RLLTFSSQIHNNGQSDFRPKNGRH [R4T]	3.09
RLLVFSSQIHNNGQSDFRPKNGRH [R4V]	2.62
RLLWFSSQIHNNGQSDFRPKNGRH [R4W]	2.15
RLLYFSSQIHNNGQSDFRPKNGRH [R4Y]	2.66
RLLRASSQIHNNGQSDFRPKNGRH [F5A]	3.46
RLLRCSSQIHNNGQSDFRPKNGRH [F5C]	3.06
RLLRDSSQIHNNGQSDFRPKNGRH [F5D]	3.84

Variant	protein stability index
RLLRESSQIHNNGQSDFRPKNGRH [F5E]	3.94
RLLRGSSQIHNNGQSDFRPKNGRH [F5G]	4.21
RLLRHSSQIHNNGQSDFRPKNGRH [F5H]	3.95
RLLRISSQIHNNGQSDFRPKNGRH [F5I]	2.72
RLLRKSSQIHNNGQSDFRPKNGRH [F5K]	3.29
RLLRLSSQIHNNGQSDFRPKNGRH [F5L]	2.54
RLLRMSSQIHNNGQSDFRPKNGRH [F5M]	2.77
RLLRNSSQIHNNGQSDFRPKNGRH [F5N]	3.92
RLLRPSSQIHNNGQSDFRPKNGRH [F5P]	3.71
RLLRQSSQIHNNGQSDFRPKNGRH [F5Q]	3.6
RLLRRSSQIHNNGQSDFRPKNGRH [F5R]	3.69
RLLRSSSQIHNNGQSDFRPKNGRH [F5S]	3.81
RLLRTSSQIHNNGQSDFRPKNGRH [F5T]	3.99
RLLRVSSQIHNNGQSDFRPKNGRH [F5V]	3.74
RLLRWSSQIHNNGQSDFRPKNGRH [F5W]	2.15
RLLRYSSQIHNNGQSDFRPKNGRH [F5Y]	2.96
RLLRFASQIHNNGQSDFRPKNGRH [S6A]	2.65
RLLRFCSQIHNNGQSDFRPKNGRH [S6C]	3.08
RLLRFDSQIHNNGQSDFRPKNGRH [S6D]	3.81
RLLRFESQIHNNGQSDFRPKNGRH [S6E]	3.62
RLLRFFSQIHNNGQSDFRPKNGRH [S6F]	2.09
RLLRFGSQIHNNGQSDFRPKNGRH [S6G]	2.64
RLLRFHSQIHNNGQSDFRPKNGRH [S6H]	2.37
RLLRFISQIHNNGQSDFRPKNGRH [S6I]	3.34

Variant	protein stability index
RLLRFKSQIHNNGQSDFRPKNGRH [S6K]	3.05
RLLRFLSQIHNNGQSDFRPKNGRH [S6L]	2.45
RLLRFMSQIHNNGQSDFRPKNGRH [S6M]	2.51
RLLRFNSQIHNNGQSDFRPKNGRH [S6N]	3.03
RLLRFPSQIHNNGQSDFRPKNGRH [S6P]	3.41
RLLRFQSQIHNNGQSDFRPKNGRH [S6Q]	2.71
RLLRFRSQIHNNGQSDFRPKNGRH [S6R]	2.99
RLLRFTSQIHNNGQSDFRPKNGRH [S6T]	2.46
RLLRFVSQIHNNGQSDFRPKNGRH [S6V]	3.85
RLLRFWSQIHNNGQSDFRPKNGRH [S6W]	2.56
RLLRFYSQIHNNGQSDFRPKNGRH [S6Y]	2.89
RLLRFSAQIHNNGQSDFRPKNGRH [S7A]	2.5
RLLRFSCQIHNNGQSDFRPKNGRH [S7C]	2.41
RLLRFSDQIHNNGQSDFRPKNGRH [S7D]	3.57
RLLRFSEQIHNNGQSDFRPKNGRH [S7E]	2.79
RLLRFSFQIHNNGQSDFRPKNGRH [S7F]	1.79
RLLRFSGQIHNNGQSDFRPKNGRH [S7G]	2.46
RLLRFSHQIHNNGQSDFRPKNGRH [S7H]	2.44
RLLRFSIQIHNNGQSDFRPKNGRH [S7I]	1.89
RLLRFSKQIHNNGQSDFRPKNGRH [S7K]	2.21
RLLRFSLQIHNNGQSDFRPKNGRH [S7L]	1.78
RLLRFSMQIHNNGQSDFRPKNGRH [S7M]	1.79
RLLRFSNQIHNNGQSDFRPKNGRH [S7N]	2.79
RLLRFSPQIHNNGQSDFRPKNGRH [S7P]	4.2

Variant	protein stability index
RLLRFSQQIHNNGQSDFRPKNGRH [S7Q]	2.18
RLLRFSRQIHNNGQSDFRPKNGRH [S7R]	2.25
RLLRFSTQIHNNGQSDFRPKNGRH [S7T]	2.21
RLLRFSVQIHNNGQSDFRPKNGRH [S7V]	2.04
RLLRFSWQIHNNGQSDFRPKNGRH [S7W]	2.06
RLLRFSYQIHNNGQSDFRPKNGRH [S7Y]	2.25
RLLRFSSAIHNNGQSDFRPKNGRH [Q8A]	2.94
RLLRFSSCIHNNGQSDFRPKNGRH [Q8C]	2.21
RLLRFSSDIHNNGQSDFRPKNGRH [Q8D]	3.81
RLLRFSSEIHNNGQSDFRPKNGRH [Q8E]	3.17
RLLRFSSFIHNNGQSDFRPKNGRH [Q8F]	2.07
RLLRFSSGIHNNGQSDFRPKNGRH [Q8G]	2.87
RLLRFSSHIHNNGQSDFRPKNGRH [Q8H]	2.5
RLLRFSSIIHNNGQSDFRPKNGRH [Q8I]	2.23
RLLRFSSKIHNNGQSDFRPKNGRH [Q8K]	2.14
RLLRFSSLIHNNGQSDFRPKNGRH [Q8L]	2.29
RLLRFSSMIHNNGQSDFRPKNGRH [Q8M]	1.95
RLLRFSSNIHNNGQSDFRPKNGRH [Q8N]	2.95
RLLRFSSPIHNNGQSDFRPKNGRH [Q8P]	3.54
RLLRFSSRIHNNGQSDFRPKNGRH [Q8R]	2.91
RLLRFSSSIHNNGQSDFRPKNGRH [Q8S]	2.73
RLLRFSSTIHNNGQSDFRPKNGRH [Q8T]	2.67

— the supplement of paper PMC10567573
